Biological target: the molecule itself
Assay: cryo-EM structure

B1: human PANX1 W74A mutant (natural protein)
chain: MAIAQLATEYVFSDFLLKEPTEPKFKGLRLELAVDKMVTCIAVGLPLLLISLAFAQEISIGTQISCFSPSSFSARQAAFVDSYCWAAVQQKNSLQSESGNLPLWLHKFFPYILLLFAILLYLPPLFWRFAAAPHICSDLKFIMEELDKVYNRAIKAAKSARDLDMRDGACSVPGVTENLGQSLWEVSESHFKYPIVEQYLKTKKNSNNLIIKYISCRLLTLIIILLACIYLGYYFSLSSLSDEFVCSIKSGILRNDSTVPDQFQCKLIAVGIFQLLSVINLVVYVLLAPVVVYTLFVPFRQKTDVLKVYEILPTFDVLHFKSEGYNDLSLYNLFLEENISEVKSYKCLKVLENIKSSGQGIDPMLLLTNLGMIKMDVVDGKTPMSAEMREEQGNQTAELQGMNIDSETKANNGEKNARQRLLDSSC
- binding result: binds

Reference: paper PMC12698695 (Nature Communications, 2025)
